Source: patent publication US20120039802A1 (published 2012)
fluorescein = fluorescein label on the side chain of the C-terminal Lys

Legend:
[1] = target: T1, cMet-Fc fusion protein (extracellular domain of the cMet receptor expressed as an Fc-fusion protein) (human, UniProt P08581 25-932); test: fluorescence polarization, 20 nM fluorescein peptide, cMet-Fc varied
T1 construct: extracellular domain; also called soluble cMet-Fc-fusion protein; soluble cMet receptor; not shown: Fc part
Experimental: (§1) Fluorescence anisotropy measurements were performed in 384-well microplates in a volume of 10 μL in binding buffer (PBS, 0.01% Tween-20, pH 7.5) using a Tecan Polarion fluorescence polarization plate reader ([…]). […] Binding mixtures were equilibrated for 10 minutes in the microplate at 30 C before measurement. The observed change in anisotropy was fit to the equation below via nonlinear regression to obtain the apparent KD. This equation (1) assumes that the synthetic peptide and cMet form a reversible complex in solution with 1:1 stoichiometry.

mouse cMet [2] = target: T2, mouse cMet (mouse, UniProt P16056 25-931, limits assumed); test: fluorescence polarization, mouse target
T2 construct: Construct not described; also called Kd (mouse) target
T2 sequence (P16056 25-931 limits assumed): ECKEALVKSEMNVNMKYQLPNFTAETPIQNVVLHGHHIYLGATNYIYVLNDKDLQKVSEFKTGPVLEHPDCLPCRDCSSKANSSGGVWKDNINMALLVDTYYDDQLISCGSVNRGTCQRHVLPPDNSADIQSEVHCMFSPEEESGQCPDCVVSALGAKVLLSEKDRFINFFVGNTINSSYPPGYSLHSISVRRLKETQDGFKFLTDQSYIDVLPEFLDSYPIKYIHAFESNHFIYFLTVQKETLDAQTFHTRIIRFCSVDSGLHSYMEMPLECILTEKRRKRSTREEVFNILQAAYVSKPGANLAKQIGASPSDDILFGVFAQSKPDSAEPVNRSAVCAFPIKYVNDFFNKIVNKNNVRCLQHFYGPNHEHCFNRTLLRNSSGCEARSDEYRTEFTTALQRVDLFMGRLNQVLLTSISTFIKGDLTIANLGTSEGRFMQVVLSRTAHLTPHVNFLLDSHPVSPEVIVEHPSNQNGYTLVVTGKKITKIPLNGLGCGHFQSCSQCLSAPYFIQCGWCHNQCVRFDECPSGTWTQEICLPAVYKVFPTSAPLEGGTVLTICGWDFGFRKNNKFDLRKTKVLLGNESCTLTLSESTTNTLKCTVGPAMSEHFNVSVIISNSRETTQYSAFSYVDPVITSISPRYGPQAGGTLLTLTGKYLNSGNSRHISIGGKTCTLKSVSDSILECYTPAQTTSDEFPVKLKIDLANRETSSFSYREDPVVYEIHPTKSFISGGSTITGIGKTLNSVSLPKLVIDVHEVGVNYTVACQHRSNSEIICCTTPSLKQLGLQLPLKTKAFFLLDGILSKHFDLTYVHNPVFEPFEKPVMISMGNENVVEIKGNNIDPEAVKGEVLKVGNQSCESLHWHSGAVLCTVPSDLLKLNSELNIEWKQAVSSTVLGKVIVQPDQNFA
Experimental: as §1

mouse cMet [3] = target: T2, mouse cMet; test: fluorescence polarization

T1 sequence (P08581 25-932): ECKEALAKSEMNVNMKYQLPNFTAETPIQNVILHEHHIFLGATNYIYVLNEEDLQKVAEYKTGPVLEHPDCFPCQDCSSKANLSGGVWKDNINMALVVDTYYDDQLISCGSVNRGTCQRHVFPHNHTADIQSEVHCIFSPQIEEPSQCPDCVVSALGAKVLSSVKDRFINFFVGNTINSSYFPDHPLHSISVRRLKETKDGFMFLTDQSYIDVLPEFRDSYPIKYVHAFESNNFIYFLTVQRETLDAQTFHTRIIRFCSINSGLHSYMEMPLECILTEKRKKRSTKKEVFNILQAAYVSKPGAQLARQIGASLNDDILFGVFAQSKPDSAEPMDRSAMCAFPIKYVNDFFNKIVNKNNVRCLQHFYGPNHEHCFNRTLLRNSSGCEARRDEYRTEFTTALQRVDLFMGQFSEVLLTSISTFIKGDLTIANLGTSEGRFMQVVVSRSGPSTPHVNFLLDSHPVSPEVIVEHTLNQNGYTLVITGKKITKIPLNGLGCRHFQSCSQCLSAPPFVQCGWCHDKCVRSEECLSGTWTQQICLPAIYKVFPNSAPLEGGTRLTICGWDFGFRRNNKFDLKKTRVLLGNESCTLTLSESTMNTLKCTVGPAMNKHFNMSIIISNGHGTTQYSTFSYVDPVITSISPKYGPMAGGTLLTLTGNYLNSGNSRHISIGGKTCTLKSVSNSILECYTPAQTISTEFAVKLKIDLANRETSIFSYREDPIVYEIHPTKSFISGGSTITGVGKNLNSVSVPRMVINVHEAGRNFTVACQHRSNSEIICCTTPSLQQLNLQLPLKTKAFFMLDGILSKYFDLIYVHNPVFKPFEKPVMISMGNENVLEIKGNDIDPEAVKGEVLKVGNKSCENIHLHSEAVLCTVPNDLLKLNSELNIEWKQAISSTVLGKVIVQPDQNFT

| Binder | Kd [1] [nM] | Kd (mouse cMet [2]) [nM] | binding result (mouse cMet [3]) |
| --- | --- | --- | --- |
| Ac-AQHSVQRQMDVWMPVQFMAGFTGGGK(fluorescein)-NH2 [02-B08 synthetic fluorescein-labeled peptide (SEQ ID NO: 467)] | > 2000 |  |  |
| Ac-AQVGTAEAIMFSDVEDTGVHKFGGGK(fluorescein)-NH2 [103-G08 synthetic fluorescein-labeled peptide (SEQ ID NO: 459)] | > 2000 |  |  |
| Ac-GSWIICWWDNCGSSAPGGGK(fluorescein)-NH2 (cysteine pairing not given here) [571-C05 synthetic fluorescein-labeled peptide (SEQ ID NO: 001)] | 200 | 3500 |  |
| Ac-AQVPDWLSAVVIEKLIEYGMMVGGGK(fluorescein)-NH2 [93-C08 synthetic fluorescein-labeled peptide (SEQ ID NO: 464)] | > 2000 |  |  |
| Ac-AQKETWEFFDIVYGSGWKFNSPGGGK(fluorescein)-NH2 [116-H02 synthetic fluorescein-labeled peptide (SEQ ID NO: 466)] | > 2000 |  |  |
| Ac-GSPEMCMMFPFLYPCNHHAPGGGK(fluorescein)-NH2 (cysteine pairing not given here) [548-F07 synthetic fluorescein-labeled peptide (SEQ ID NO: 369)] |  |  | no binding |
| Ac-AQGFELWVDHTRNFFIAISPGGGK(fluorescein)-NH2 [127-A07 synthetic fluorescein-labeled peptide (SEQ ID NO: 469)] | 2400 |  |  |
| Ac-AQWPHDGLVHWGEVIMLRFGGGK(fluorescein)-NH2 [117-F04 synthetic fluorescein-labeled peptide (SEQ ID NO: 479)] | 1700 |  |  |
| Ac-AGSWHCAGPPSFECWEFGTGGGK(fluorescein)-NH2 (cysteine pairing not given here) [331-G04 synthetic fluorescein-labeled peptide (SEQ ID NO: 055)] | 900 | 1100 |  |
| Ac-AQSPYIFPIDDSGRQIFVIQWGGGGK(fluorescein)-NH2 [76-D09 synthetic fluorescein-labeled peptide (SEQ ID NO: 463)] | > 2000 |  |  |
| Ac-AQHQYGQMMVLHIQYDMGEFIPGGGK(fluorescein)-NH2 [117-F08 synthetic fluorescein-labeled peptide (SEQ ID NO: 462)] | > 2000 |  |  |
| Ac-AQEWEREYFVDGFWGSWFGIPHGGGK(fluorescein)-NH2 [130-E10 synthetic fluorescein-labeled peptide (SEQ ID NO: 472)] | 2600 | 7650 |  |
| Ac-AQVEDMATVHFKFNPATHEVIWGGGK(fluorescein)-NH2 [524-H02 synthetic fluorescein-labeled peptide (SEQ ID NO: 492)] | 800 |  |  |
| Ac-AQHWDYDSGSDFWFPVFFLEHHGGGK(fluorescein)-NH2 [79-B02 synthetic fluorescein-labeled peptide (SEQ ID NO: 475)] | 1900 |  |  |
| Ac-GDYSECFFEPDSFEVKCYDRDPGGGK(fluorescein)-NH2 (cysteine pairing not given here) [545-H12 synthetic fluorescein-labeled peptide (SEQ ID NO: 399)] | 1150 |  | no binding |
| Ac-AQDLKPWTAGWEPPWLWTDRGPGGGK(fluorescein)-NH2 [104-C09 synthetic fluorescein-labeled peptide (SEQ ID NO: 461)] | > 2000 |  |  |
| Ac-AQPYYELQDADMLLVVALLSTGGGGK(fluorescein)-NH2 [94-F07 synthetic fluorescein-labeled peptide (SEQ ID NO: 458)] | 3750 |  |  |
| Ac-GSFFPCWRIDRFGYCHANAPGGGK(fluorescein)-NH2 (cysteine pairing not given here) [551-H10 synthetic fluorescein-labeled peptide (SEQ ID NO: 370)] | 220 |  | no binding |
